Target: T1, C3aR R161A (human, UniProt Q16581 1-482, R161^ECL2A)
T1 sequence: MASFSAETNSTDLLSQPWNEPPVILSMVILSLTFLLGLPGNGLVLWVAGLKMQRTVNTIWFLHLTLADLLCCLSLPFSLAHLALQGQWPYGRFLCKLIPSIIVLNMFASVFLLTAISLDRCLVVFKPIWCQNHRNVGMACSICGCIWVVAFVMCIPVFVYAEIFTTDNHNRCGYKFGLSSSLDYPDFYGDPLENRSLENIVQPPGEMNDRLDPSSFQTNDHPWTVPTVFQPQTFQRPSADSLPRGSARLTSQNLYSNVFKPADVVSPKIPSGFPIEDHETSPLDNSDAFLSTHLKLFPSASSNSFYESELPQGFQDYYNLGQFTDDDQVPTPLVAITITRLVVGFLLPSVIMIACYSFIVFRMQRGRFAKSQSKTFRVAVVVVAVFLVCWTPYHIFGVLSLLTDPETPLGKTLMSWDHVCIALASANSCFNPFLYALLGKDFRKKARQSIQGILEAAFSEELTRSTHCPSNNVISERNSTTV
Test: cell-based or functional assay

B1: His6-SUMOstar-C3a (recombinant human C3a, residues 1-77) (ligand)
chain: not shown
With B1 the “decrease of the potency of C3a against the wild type (GloSensor cAMP assay)” value was over 100 fold.
